From the DeepSol protein solubility set

Assay: soluble on expression in E. coli; label from the status in PepcDB or PDB records

Sequence | soluble on expression in E. coli
MGSSHHHHHHSSASMTGGQQMGRTLYDDDDKDRWGSELETGRQKARGAATRARQKQRASLETMDKAVQRFRLQNPDLDSEALLTLPLLQLVQKLQSGELSPEAVFFTYLGKAWEVNKGTNCVTSYLTDCETQLSQAPRQGLLYGVPVSLKECFSYKGHDSTLGLSLNEGMPSESDCVVVQVLKLQGAVPFVHTNVPQSMFSYDCSNPLFGQTMNPWKSSKSPGGSSGGEGALIGSGGSPLGLGTDIGGSIRFPSAFCGICGLKPTGNRLSKSGLKGCVYGQTAVQLSLGPMARDVESLALCLKALLCEHLFTLDPTVPPLPFREEVYRSSRPLRVGYYETDNYTMPSPAMRRALIETKQRLEAAGHTLIPFLPNNIPYALEVLSTGGLFSDGGRSFLQNFKGDFVDPCLGDLILILRLPSWFKRLLSLLLKPLFPRLAAFLNNMRPRSAEKLWKLQHEIEMYRQSVIAQWKAMNLDVLLTPMLGPALDLNTPGRATGAVSYTMLYNCLDFPAGVVPVTTVTAEDDAQMELYKGYFGDIWDIILKKAMKNSVGLPVAVQCVALPWQEELCLRFMREVEQLMTPQKQPS | soluble
MPLEASELKPTAGPLEASELKPTAGPLEASELKPTAGPLEASELKPTAGPLEASELKPTAGPLEASELKPTAGPLEASELKPTAGMKKNSYLLSCLAIAVSSACHAEVLTYPDPLGSSQSDFGGTGLLQMPNARIAPEGEFSVNYRDNDQYRFYSTSVALFPWLEGTIRYTDVRTRKYSQWEDFSGDQSYKDKSFDFKLRLWEEGYWLPQVAFGKRDIAGTGLFDGEYLVASKQAGPFDFTLGMAWGYAGNAGNITNPFCRVSDKYCHRAESHDAGDISFSDIFRGPASIFGGIEYQTPWNPLRLKLEYDGNNYQNDFAGKLPQASHFNVGAVYRAASWADLNLSYERGNTLMFGFTLRTNFNDLRPALRDTPKPAYQPAPESEGLQYTTVANQLTALKYNAGFDAPEIQLRDKTLYMSGQQYKYRDSREAVDRANRILVNNLPQGVEKISVTQKREHMAMVTTETDVASLRKQLAGTAPGQSEPLQQQRVEAEDLSAFGRGYRIREDRFSYSFNPTLSQSLGGPEDFYMFQLGLMSSARYWFTDHLLLDGGIFTNIYNNYDKFKSSLLPADSTLPRVRTHIRDYVRNDVYLNNLQANYFADLGNGFYGQVYGGYLETMYAGVGSELLYRPLDACWALGVDVNYVKQRDWDNMMRFTDYSTPTGFVTAYWNPPTLNGVLMKLSVGQYLAKDKGATIDVAKRFDSGVAVGVWAAISNVSKDDYGEGGFSKGFYISIPFDLMTIGPNRNRAVVSWTPLTRDGGQMLSRKYQLYPMTAEREVPVGQLEHHHHHH | not soluble
MSLDEIKSGKYKHGDKLPTEKELMERFNASRETVRKALERLVVKNLVIRKPGLGTFVNIEKKNKVVGILVQQITSYIFPYIALGAEEVLFANGYKMLLGNASEDPHKERQIINEWLEVGVDGLIIDPVYSATKRSNRDLIEDMAKKGTKVVLVHTNWDIEGVGSVVLDDWYGGEKAAEIFYQYGHRNVAVLYKTIHLPSVVRAQAFLKRGRELGFEKVHEKSFHVSEFTGIVMQSAFELLSLPKDQRPTAVFCYNDATALQFFLAAKRMGLKIPEDVSVIGFDDAPIGDFREILTTFEHPKEEVGKKAVEILLKMIDGEKPEKYVFKPKLIMRESVTYPKEGHHHHHH | soluble
MDLMSFKEKEISKKDCLELFEDTENFFDVIKLADSIRKDIVGDTVTYVVNANINFTNVCSGTCKFCAFKAEHGDPNAFFLNPDEVAKKALEARKIGATEVCIQGGLLKEIDTYFQAEILKKVKKITEPYEEIVVHAFSPMEVKSAAENAGLSVNEALKILKENGLNSMPGTAAEILNDEIRSEICPTKLKTSEWIDVVTNAHKTGIKTTCTMMYGHIEENKHLAEHLSILRKIQKETGGFTEFVPLTFLHENAPLHHMERVKSGASGMLDLKTYAISRIFFKDYIKNIQTSWVKLGTKLSQVSLNCGANDIGGTLMEESISKAAGGSYGTFMSEEKLKDMILAVGRIPKQRNTAYEIIE | not soluble
MFGKTLLRRIACSNLNLKSRKLSGKPRLAIVGSGPAGMFACNGLLRKSNFSVDVFENSPVPFGLVRYGVAPDHQEVKNVINTFDAMFEKNRERLKLFCNVNIGRDITFDELTRGYDAVLLAYGSYKTRTLDIPGSDASNVISGSEFVGWYNGVPNASTPDLTTSNVVIVGNGNVALDCARVLSTASSGLLRISDIPGDRLNVLEGANVKDIKILGRRGPEHVSFTIKELREQFKIKDWDSKLEISEIDAKNLTESLPKLERKKKRLTEVLVKNIGIANGLRQCHFIFHRIPEKIIADSNGKVQEIIVKNNETGQEETYPCGLLIYSIGYQTLVLDGVPQNDKKMIDMKDHCRVNMVAACSSQVYATGWCAHGPHGIIVDTQQQSIFVADQIAADFAQFKDSTSNGVEELLEDRKVPFISWDEWKQIDRQEQDTGKLSGKIREKFTTFEKFLTKLKKCN | not soluble
